According to PMC9889962 (Antibody Therapeutics, 2023):

Target: T1, FcRn receptor (UniProt P55899 24-365)
T1 construct: also called purified FcRn
Experiment: SPR
Conditions: both partners purified

B1: LiVE-Longer YTE chimera (ACE-2 LVE/STR-YTE fusion protein) (Fc fusion)
chain: QSTIEEQAKLFLDKFNVEAEDLFYQSSLASWNYNTNITEENVQNMNNAGDKWSAFLKEQSTLAQMYPLQEIQELTVKLQLQALQQNGSSVLSEDKSKRLNTILNTMSTIYSTGKVCNPDNPQECLLLEPGLNEIMANSLDYNERLWAWESWRSEVGKQLRPLYEEYVVLKNEMARANHYEDYGDYWRGDYEVNGVDGYDYSRGQLIEDVEHTFEEIKPLYEHLHAYVRAKLMNAYPSYISPIGCLPAHLLGDMWGRFWTNLYSLTVPFGQKPNIDVTDAMVDQAWDAQRIFKEAEKFFVSVGLPNMTQGFWENSMLTDPGNVQKAVCHPTAWDLGKGDFRILMCTKVTMDDFLTAHHEMGHIQYDMAYAAQPFLLRNGANEGFHEAVGEIMSLSAATPKHLKSIGLLSPDFQEDNETEINFLLKQALTIVGTLPFTYMLEKWRWMVFKGEIPKDQWMKKWWEMKREIVGVVEPVPHDETYCDPASLFHVSNDYSFIRYYTRTLYQFQFQEALCQAAKHEGPLHKCDISNSTEAGQKLFNMLRLGKSEPWTLALENVVGAKNMNVRPLLNYFEPLFTWLKDQNKNSFVGWSTDWSPYADQSIKVRISLKSALGDKAYEWNDNEMYLFRSSVAYAMRQYFLKVKNQMILFGEEDVRVANLKPRISFNFFVTAPKNVSDIIPRTEVEKAIRMSRSRINDAFRLNDNSLEFLGIQPTLGPPNQPPVS
Q: For B1, which Kd is on record?
A: The Kd was 27 nM.
